{"source": "paper PMC8470970", "about": "“A Novel L-Asparaginase from Hyperthermophilic Archaeon Thermococcus sibiricus: Heterologous Expression and Characterization for Biotechnology Application” (International Journal of Molecular Sciences, 2021)", "proteins": {"B1": {"name": "TsA (L-asparaginase from Thermococcus sibiricus) (Thermococcus sibiricus MM 739) (protein)", "chain": "MKKLLIIGTGGTIASAKTEQGYKSVLKIDEILKLAKIKLENGYKIDSTNIMNIDSTLIHPEDWEIIAKEVFKALDDYDGIIITHGTDTLAYTASMLSFMIKNPNKPIVLTGSMLPITENGSDAPRNIRTAIKFAMEDVAGVFVAFMDKIMLGCRTSKVRTLGLNAFMSINYPDVAYVKGEKILYNIPKEKFQPNGSPELDTKYEPRVVVLRVTPGLGGEIIDAVLDAGYKGIVLEGYGAGGLPYRKSNLLSKIKEITPKIPVIMTTQALYDGVDMRKYEVGRKALETGIIPAKDMTKEATITKLMWALGHTKDVEKIREIMHTNYVNEIKS", "notes": "full-length, 331 residues, codon-optimized synthetic gene in pET-28a(+) NheI/SalI, E. coli BL21 (DE3); SP-Sepharose ion exchange"}}, "substrate": "NC(=O)C[C@H](N)C(=O)O", "test": "ammonia release by direct Nesslerization; Lineweaver-Burk plot", "assay_type": "biochemical, Thermococcus sibiricus", "details": "Tris-HCl 0.05 M, pH 9.0, 90 °C, printed substrate range 20-250 μM", "data": [{"protein": "B1", "values": [{"measurement": "Km", "value": 2800, "unit": "µM"}]}]}
